Experimental data published in paper PMC6326811.

Target: FLAG-HA-tagged full-length wild-type TOE1 (human) (UniProt Q96GM8)
Assay: co-IP; IP-TRAP: lysates of 293T cells transiently expressing FLAG-HA-tagged proteins incubated with anti-FLAG M2 beads at 4°C for 2 h; telomerase in the eluates read by its activity (Q-TRAP)

- telomerase activity brought down, relative to FLAG-TCAB1 (fraction of FLAG-TCAB1): 0.33
Substance: active telomerase (endogenous telomerase holoenzyme of 293T cells) (from UniProt O14746 1-1132) (complex)
